The values that follow come from IntAct's records for PubMed 27519415.

B1: Glutaredoxin-3 (Homo sapiens), O76003 (parent)
chain: MAAGAAEAAVAAVEEVGSAGQFEELLRLKAKSLLVVHFWAPWAPQCAQMNEVMAELAKELPQVSFVKLEAEGVPEVSEKYEISSVPTFLFFKNSQKIDRLDGAHAPELTKKVQRHASSGSFLPSANEHLKEDLNLRLKKLTHAAPCMLFMKGTPQEPRCGFSKQMVEILHKHNIQFSSFDIFSDEEVRQGLKAYSSWPTYPQLYVSGELIGGLDIIKELEASEELDTICPKAPKLEERLKVLTNKASVMLFMKGNKQEAKCGFSKQILEILNSTGVEYETFDILEDEEVRQGLKAYSNWPTYPQLYVKGELVGGLDIVKELKENGELLPILRGEN
B2: Glutaredoxin-3 (Homo sapiens), O76003 (parent)
chain: B1 chain
partner: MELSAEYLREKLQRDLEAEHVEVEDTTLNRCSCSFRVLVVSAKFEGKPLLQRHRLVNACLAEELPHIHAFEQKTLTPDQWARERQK

The variants in one experiment derive from B1. The settings on record: with cpin1_human CIAPIN1, Q6FI81.
Chain of cpin1_human CIAPIN1, Q6FI81 (Q6FI81 whole entry): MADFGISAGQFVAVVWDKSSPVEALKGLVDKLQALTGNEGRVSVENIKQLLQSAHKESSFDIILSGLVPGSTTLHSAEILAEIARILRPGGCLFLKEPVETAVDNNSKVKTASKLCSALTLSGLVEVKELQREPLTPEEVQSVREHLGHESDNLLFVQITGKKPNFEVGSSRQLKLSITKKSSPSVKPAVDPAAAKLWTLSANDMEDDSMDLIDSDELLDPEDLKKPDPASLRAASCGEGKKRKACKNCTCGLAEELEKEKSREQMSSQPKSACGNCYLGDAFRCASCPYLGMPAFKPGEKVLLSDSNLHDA
As for C159S;W197D;P198A;C261S;W299D;P300A, the “effect of a mutation on the interaction” value was “disrupting interaction strength”.

Variants of B2 are the subject of another experiment. The settings on record: with bola2_human BOLA2, Q9H3K6.
Regarding C159S;W197D;P198A;C261S;W299D;P300A, the “effect of a mutation on the interaction” value is “disrupting interaction strength”.

As for C261S;W299D;P300A, the “effect of a mutation on the interaction” value is given as “decreasing interaction strength”.

Consider C159S;W197D;P198A, for which the “effect of a mutation on the interaction” value was “decreasing interaction strength”.
